Test results as given in publication PMC8423723, “Regulation of cadherin dimerization by chemical fragments as a trigger to inhibit cell adhesion” (Communications Biology, 2021).

Experiments:
[1] = molecular target: C-terminally His-tagged P-cadherin MEC12 (X dimer), on liposomes (human)
[2] = molecular target: T1, EC12 (P-cadherin) (Homo sapiens, UniProt P22223); assay: SPR ABA assay, disruption of EC12 dimer on chip; assay type: binding; conditions: 100 µM compound, 2 µM EC12 in solution A
T1 construct: gene CDH3; EC1-EC2, residues 1-241, wild type; E. coli, SUMO cut; amine-coupled to CM5 chip

[3] = molecular target: T2, REC12 (P-cadherin monomer mutant) (Homo sapiens, UniProt P22223, INS0R); assay: SPR, Scatchard analysis of equilibrium responses; assay type: binding
T2 construct: gene CDH3; EC12 (EC1-EC2, residues 1-241) with Arg inserted at N terminus; biotinylated for chip capture; E. coli Rosetta2(DE3), SUMO tag cut with Ulp1; monomer

[4] = molecular target: T3, REC12 (P-cadherin monomer mutant) (Homo sapiens, UniProt P22223); conditions: pH 7.5, 25 °C, 3 mM CaCl2, 5% DMSO; construct printed only as P-cadherin
T3 construct: gene CDH3

[5] = molecular target: P-cadherin MEC12 (X dimer) K14A; assay: SEC-MALS; conditions: N = 1; parent: est. 33; read off a plot

T1 sequence (P22223 108-348): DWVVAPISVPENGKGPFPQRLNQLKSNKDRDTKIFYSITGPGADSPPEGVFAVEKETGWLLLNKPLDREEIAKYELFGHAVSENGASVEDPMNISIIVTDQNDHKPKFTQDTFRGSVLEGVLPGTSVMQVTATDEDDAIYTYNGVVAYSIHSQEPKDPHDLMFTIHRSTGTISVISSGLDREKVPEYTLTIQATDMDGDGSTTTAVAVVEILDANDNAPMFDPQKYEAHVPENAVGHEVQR
T2 sequence (P22223 107-348, stated change not applied): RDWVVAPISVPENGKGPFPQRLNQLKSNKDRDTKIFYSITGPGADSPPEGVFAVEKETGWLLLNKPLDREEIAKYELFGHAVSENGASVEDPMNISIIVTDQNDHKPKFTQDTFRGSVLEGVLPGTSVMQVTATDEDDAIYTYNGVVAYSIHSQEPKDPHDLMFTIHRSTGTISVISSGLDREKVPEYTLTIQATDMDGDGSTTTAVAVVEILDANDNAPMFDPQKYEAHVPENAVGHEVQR
T3 sequence (P22223 107-348, change not shown): as the sequence (P22223 107-348, stated change not applied) above

In the case of “C-terminally His-tagged P-cadherin MEC12 (X dimer), on liposomes (domain or fragment)”, the kobs of liposome aggregation (optical density at 650 nm after addition of CaCl2, one-phase association), in the absence of Hit 1; no aggregation with EDTA or without MEC12 [1] is reported as 0.0086 and the kobs of liposome aggregation (optical density at 650 nm after addition of CaCl2, one-phase association), in the presence of Hit 1 [1] is reported as 0.0033.
In the case of `Cc1[nH]c2ccc(Cl)cc2c1CCN` [Hit 1], the “SPR ABA assay, disruption of EC12 dimer on chip” value [2] is reported as “These compounds bound to and disrupted the dimerization” and the Kd [3] is reported as roughly 916 µM.
In the case of `NCCc1c[nH]c2ccccc12` [tryptamine], the SPR direct binding [4] is reported as “only tryptamine bound to P-cadherin”.
“P-cadherin MEC12 (X dimer) as used in SEC-MALS and HDX-MS K14A” gave an other: molecular weight (SEC-MALS) [5] of 24 kDa.
